Data reported in publication PMC8573170 (2021).

Columns and labels:
alpha-thrombin [1] = target: T1, alpha-thrombin (Homo sapiens, UniProt P00734); assay: SPR
alpha-thrombin [2] = target: T1, alpha-thrombin; assay: inhibition of S-2238 hydrolysis, Morrison fit
alpha-thrombin [3] = target: T1, alpha-thrombin; assay: inhibition of S-2238 hydrolysis, Kiapp versus substrate concentration regression

Row | Binder | Kd (alpha-thrombin [1]) [pM] | Ki (alpha-thrombin [2]) [pM] | Ki (alpha-thrombin [3]) [pM]
1 | KPVEAEVAQPKLYQRGEGGNGMEPIPEDVLNEALNA [XC-43 mature peptide] | 3 | 6.1 | 7.7
2 | KPVEAEVAQSNLDECEVEAEVAQPKLYQRGEGGNGMEPIPEDVLNEALNA [XC-42 mature peptide] | – | 18 | –
